Experiments:
G4C2×5 repeat RNA = assay: Protein:RNA UV crosslinking assay, sense probe; assay type: binding; settings: purified recombinant hexa-histidine-tagged protein
Protocol: (§1) Recombinant proteins expressed in 1.51 of E. coli BL21 (DE3)-RP (Novagen) cell cultures were purified by IMAC chromatography on TALON/Cobalt beads (Clontech) in 1M NaCl containing buffers to prevent the potential co-purification of E. coli RNA (Lysis buffer: 50 mM TRIS-HCl pH8.0, 1M NaCl, 0.5% Triton X-100; Wash buffer: 50 mM TRIS-HCl pH8.0, 1M NaCl, 0.5% Triton X-100, 5 mM imidazole). […] Binding reactions were resolved on SDS-PAGE prior to analysis by Coomassie staining and Phosphoimaging.

C4G2×5 repeat RNA = assay: Protein:RNA UV crosslinking assay, antisense probe; assay type: binding; settings: purified recombinant hexa-histidine-tagged protein
Protocol: as §1

[1] = test system: G4C2-sense or C4G2-antisense repeat transcripts; assay: RNA immunoprecipitation (RIP) assays in N2A cells; assay type: binding, mouse; settings: 15 vs 38/39 repeats
Protocol: Cells were split into 1×T-175 flasks/treatment (5×10^6 cells/plate) and transfected with 30 μg p3×FLAG, p3×FLAG/SRSF1 (11-196) or p3×FLAG/SRSF1 (11-196)-m4 and 10 μg pcDNA 3.1/RAN-G4C2×15-sense, RAN-G4C2×38-sense, RAN-G4C2×15-antisense or RAN-C4G2×39-antisense using 3 μg PEI/1 μg […] and one tenth volume OptiMEM.
Protein-RNA complexes were extracted from Neuro-2a cells 48 hours after transfection. Protein-RNA complexes were cross-linked using 1% formaldehyde for 10 minutes, shaking at room temperature. Residual formaldehyde was quenched with 250 mM Glycine at room temperature for 5 minutes, shaking. Cross-linked cells were subsequently washed in ice cold DEPC treated PBS and scraped into ice cold RNase free lysis buffer (DEPC treated water containing 50 mM Hepes pH7.5, 150 mM NaCl, 10% glycerol, 0.5% triton X-100, 1 mM EDTA, 1 mM DTT, 1 μl RNase inhibitor, protease inhibitor cocktail). Cells were passed through a 21G gauge needle 10 times and left to lyse on ice for 10 minutes, followed by centrifugation at maximum speed at 4° C. for five minutes and quantification using Bradford Reagent. 2.5 mg of total protein at a 1 mg/ml concentration was incubated with 40 μl anti-FLAG® M2 affinity resin slurry (which had been blocked overnight with 1% BSA and 5 μl/ml ssDNA) overnight at 4° C. on a rotating wheel. One 15th of the total protein extract was retained for an input sample. […]

NXF1 = target: T1, NXF1 (Mus musculus, UniProt Q99JX7); assay: Anti-FLAG co-immunoprecipitation of endogenous NXF1 in N2A cells; assay type: binding; settings: FLAG-tagged protein, 48 h
T1 construct: endogenous in cells; host or cells: Neuro-2a (N2A)
T1 sequence (Q99JX7 1-618): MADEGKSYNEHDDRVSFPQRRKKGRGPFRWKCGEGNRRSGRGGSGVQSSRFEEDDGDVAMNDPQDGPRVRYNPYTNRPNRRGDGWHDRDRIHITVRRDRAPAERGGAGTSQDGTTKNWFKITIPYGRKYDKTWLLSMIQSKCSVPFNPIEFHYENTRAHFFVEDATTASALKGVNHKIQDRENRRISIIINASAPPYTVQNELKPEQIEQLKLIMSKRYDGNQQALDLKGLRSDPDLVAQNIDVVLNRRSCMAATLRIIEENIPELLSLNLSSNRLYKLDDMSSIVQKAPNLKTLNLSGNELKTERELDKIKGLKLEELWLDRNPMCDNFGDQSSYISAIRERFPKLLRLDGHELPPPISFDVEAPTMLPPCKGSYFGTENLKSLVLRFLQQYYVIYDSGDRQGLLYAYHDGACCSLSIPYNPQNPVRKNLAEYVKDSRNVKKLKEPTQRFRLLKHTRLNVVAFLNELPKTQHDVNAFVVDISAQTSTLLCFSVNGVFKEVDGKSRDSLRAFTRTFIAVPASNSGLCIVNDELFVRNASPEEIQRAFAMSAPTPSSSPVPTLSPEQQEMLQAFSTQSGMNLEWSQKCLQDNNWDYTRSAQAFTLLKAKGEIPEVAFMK
Protocol: Cells were split into 1×10 cm plates/treatment (1.5×10^6 cells/plate) and transfected with 15 μg p3×FLAG, p3×FLAG/SRSF1 (11-196), p3×FLAG/SRSF1 (11-196)-m2 or p3×FLAG/SRSF1(11-196)-m4 using 3 μg PEI/1 μg DNA and one tenth medium volume OptiMEM.
Proteins were extracted from Neuro-2a cells 48 hours after transfection. Cells were briefly washed in ice cold PBS, scraped into 500 μl ice cold lysis buffer, passed through a 21G gauge needle 10 times and left to lyse on ice for 10 minutes. Lysed cells were cleared by centrifugation at maximum speed at 4° C. for five minutes and protein extracts were quantified using Bradford Reagent. 2 mg of total protein in 1 ml lysis buffer was incubated with 30 μl anti-FLAG® M2 affinity resin slurry (Sigma A2220) (which had been blocked overnight with 1% BSA in IP lysis buffer) for 2 hours at 4° C. on a rotating wheel. […] 30 μg total protein and 15 μl captured protein complexes were resolved by SDS-PAGE, electroblotted onto nitrocellulose membrane and probed using FLAG, NXF1 clone 53H8 [1:2000] (Abcam ab50609) and […]-tubulin.

B1: SRSF1-m4: quadruple SRSF1 point mutant aa11-196, dominant negative, does not interact with TAP/NXF1 (protein)
chain: AGNNDCRIYVGNLPPDIRTKDIEDVFYKYGAIRDIDLKNRRGGPPFAFVEFEDPRDAEDAVYGRDGYDYDGYRLRVEFPASGAGTGRGGGGGGGGGAPRGRYGPPSAASENRVVVSGLPPSGSWQDLKDHMREAGDVCYADVYRDGTGVVEFVRKEDMTYAVRKLDNTKFRSHEGETAYIRVKVDG
modifications: left off: small tags and cut ends
G4C2×5 repeat RNA
  direct interaction with sense G4C2×5 repeat RNA: retains the ability to directly interact
C4G2×5 repeat RNA
  direct interaction with antisense C4G2×5 repeat RNA: retains the ability to directly interact
[1]
  immunoprecipitated repeat transcripts: length-dependent repeat-RNA sequestration
NXF1
  co-immunoprecipitation of endogenous NXF1: severely impaired

Source: patent US10801027B2, “Inhibitors of SRSF1 to treat neurodegenerative disorders” (University of Sheffield, priority 2016, dated 2020)
